The results in this text go back to article PMC6746942.

The target in one series is T1, YtrASa (Sulfolobus acidocaldarius) (UniProt Q4J7S4).
T1 sequence: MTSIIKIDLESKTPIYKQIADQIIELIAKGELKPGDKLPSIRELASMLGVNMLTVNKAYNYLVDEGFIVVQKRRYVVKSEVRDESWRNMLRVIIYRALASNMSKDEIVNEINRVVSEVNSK
As to the kind of experiment: EMSA. Conditions: 20 mM Tris-HCl pH 8.0, 1 mM MgCl2, 0.1 mM DTT, 12.5% glycerol, 50 mM NaCl, 0.4 mM EDTA, 37 C; ~0.1 nM 32P-DNA, excess non-specific competitor DNA; 6% native …. For orientation: A gel shift assay detects complexes by their altered migration in electrophoresis.
Regarding “AAAATGGGAGAGTAATCGGTTTTTATTGAGACTTCGCAATACGATATATATGGATACAAAAGTTGTAATTAGAAGAGATCAGTGGAAACCAGGATCGGCGATGGAAATAAAGCGAGGCGT (double strand) [Saci_1234 target]”, the binding result was “no binding”.
Consider “AACTGCGGTGAATAAAGTAGGGTGTTTGATTTTTGCCAAAGAAGAGGGAGAATAGAGGAAGAAGAAAGGGCGACAAAGGACACGTTGGTAGCATACATTGTGACCA (double strand) [Saci_1554 target]”, for which the binding result was “binds more weakly”.
Consider “AGCAACACCAAAGGATTGAATTTCATTTCTATCCCTGTTTGACTTAAAGCAAGACTCTTGAATAAAAAATATAATTTAGAGGTTTACTAAAAACAAACCGTGAACGTAGGAAGA (double strand) [Saci_0871 target]”, for which the binding entry was “no binding”.
“CTTACCTTTTATAGTAGGTAAATAAGGTTTTTATTCCCCTAAATCATATATTTGCTATATGACAAGTATAATAAAAATCGACCTAGAGTCCAAGACTCCCATC (double strand) [ytrASa (Saci_1851) target, 102 bp]”: the Kd (usually the equilibrium constant for the complex coming apart) was found to be 37 nM and the binding entry is listed as “binds”.
Turning to “GGGAAAGGATATTGGGGAAATATTAAAAATACTGGGTTGAAGTTTAAACTTGTGTTTAAACAACTAATAATTAAATATTTTGGGATAATATCTGTTGTAATCCTTGCAACAATAATCTC (double strand) [Saci_0421 target]”, the binding result is on record as “no binding”.
“GTTTTGAGTACAACCTAACCCATTATACTAAATAAGGTTTATTTATTTTAGTAACTTTTAGAAATTATGCAAGATCTTTTTTGGGAAAGTGCAAATTGCCTTGAGGGAAAAGGTCTGCAA (double strand) [Saci_2168 target]”: the binding entry is on record as “no binding”.
For Saci_2078 target, 100 bp, the Kd worked out at 34 nM.
Consider “TCCTGAAGGCCTAAAAGAGTACATTCTAGACCTTTCCGCATAAAACTTAGGTAGGGCTAGGCATAATGCAAAAGCCCTCAAACTTTTCATTAAAGAAGTGATT (double strand) [Saci_0677 target]”, for which the binding entry is listed as “no binding”.
“TCGTCAACAACCTATATAAGCCATAACTTTAAATAAGGATATTGTTATATTTGTTATATGACAAATATGTTTTCATTACTCTACCCGCTAATCTCCATAG (double strand) [Saci_2078 target, 100 bp]” yielded a Kd of 34 nM.
In turn, ytrASa (Saci_1851) target, 102 bp registered a Kd of 37 nM.

Another series deals with T1, YtrASa (Sulfolobus acidocaldarius). As to the kind of experiment: DNase I footprinting. Particulars: 20 mM Tris-HCl pH 8.0, 1 mM MgCl2, 0.1 mM DTT, 12.5% glycerol, 50 mM NaCl, 0.4 mM EDTA, 37 C; ~0.1 nM 32P-DNA, excess non-specific competitor DNA; 6% native ….
In the case of “CTTACCTTTTATAGTAGGTAAATAAGGTTTTTATTCCCCTAAATCATATATTTGCTATATGACAAGTATAATAAAAATCGACCTAGAGTCCAAGACTCCCATC (double strand) [ytrASa (Saci_1851) target, 102 bp]”, the binding entry is recorded as “binds”.
Same read-out and setting: then “TCGTCAACAACCTATATAAGCCATAACTTTAAATAAGGATATTGTTATATTTGTTATATGACAAATATGTTTTCATTACTCTACCCGCTAATCTCCATAG (double strand) [Saci_2078 target, 100 bp]”, with “binds”.
